Experimental data as given in patent publication US20190185581A1 (University of California, published 2019).
Blank lines part the entries; values can stand above or below the binder they belong to.

What was measured:
[1] = target: T1, catalytic domain of MMP-14 (cdMMP-14) (human, UniProt P50281 114-287, limits assumed, biotinylated (Sulfo-NHS-LC-Biotin) where immobilised via streptavidin); experiment: cell-based or functional assay
[2] = target: T1, catalytic domain of MMP-14 (cdMMP-14); experiment: competitive ELISA: serially diluted n-TIMP-2 with Fab 3A2 fixed at 10 nM on biotinylated cdMMP-14 on streptavidin wells; bound Fab detected with anti-Fab-HRP; competitor: Fab 3A2
[3] = target: T2, catalytic domain of MMP-9 (cdMMP-9) (human, UniProt P14780 107-443, limits assumed); experiment: competitive ELISA: Fab R2C5 at its IC50 concentration pre-incubated with soluble cdMMP-9, then added to a plate coated with 100 nM cdMMP-14; anti-Fab-HRP
T2 sequence: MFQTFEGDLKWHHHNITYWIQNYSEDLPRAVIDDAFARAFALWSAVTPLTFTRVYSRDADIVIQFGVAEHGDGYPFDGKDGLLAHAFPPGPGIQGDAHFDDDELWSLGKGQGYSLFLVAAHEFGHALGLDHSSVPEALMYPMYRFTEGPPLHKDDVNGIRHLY

[4] = target: T1, catalytic domain of MMP-14 (cdMMP-14); experiment: ELISA, Fab titrated on immobilised biotin-cdMMP-14, anti-Fab-HRP
[5] = target: T1, catalytic domain of MMP-14 (cdMMP-14); experiment: cell-based or functional assay; remark: listed apart in the source
[6] = target: T2, catalytic domain of MMP-9 (cdMMP-9); experiment: competitive ELISA: Fab R2C14 at its IC50 concentration pre-incubated with soluble cdMMP-9, then added to a plate coated with 100 nM cdMMP-14; anti-Fab-HRP
[7] = target: T1, catalytic domain of MMP-14 (cdMMP-14); experiment: ELISA, Fab titrated on immobilised MMP-14 catalytic domain, anti-Fab-HRP
Protocol: Bound Fabs were detected using the anti-Fab-HRP conjugate. The half-maximal effective concentration (EC₅₀) was calculated from a four-parametric logistic curve-fitting analysis.

[8] = target: T2, catalytic domain of MMP-9 (cdMMP-9); experiment: ELISA on MMP-2, MMP-9 and MMP-14 catalytic domains
[9] = target: T1, catalytic domain of MMP-14 (cdMMP-14); experiment: cell-based or functional assay; remark: listed apart in the source
[10] = target: T3, Fab 3A2; experiment: competitive ELISA: 10 nM Fab 3A2 pre-incubated with soluble MMP-14 mutant, then captured on immobilised wild-type MMP-14; anti-Fab-HRP
T3 construct: also called R3C9; not shown: His tag at the C-terminus of the heavy chain

B1: N-terminal inhibitory domain of tissue inhibitor of metalloproteinase-2 (n-TIMP-2) (other, UniProt P16035 27-153, looked up)
chain: CSCSPVHPQQAFCNADVVIRAKAVSEKEVDSGNDIYGNPIKRIQYEIKQIKMFKGPEKDIEFIYTAPSSAVCGVSLDVGGKKEYLIAGKAEGDGKMHITLCDFIVPWDTLSTTQKKSLNHRYQMGCE
notes: domain: N-terminal domain
inhibitory IC50 (FRET peptide substrate) [1]: 5.1 nM
IC50 (read off the curve) [2]: ~30 nM

B3: Fab R2C14 (Fab, V domains shown)
VH: EVQLVESGGGLVQPGGSLRLSCAASGFNIYSSSIHWVRQAPGKGLEWVASIYSYSGYTYYADSVKGRFTISADTSKNTAYLQMNSLRAEDTAVYYCARVSNRYNRSSASIAGLQLFRPYGMDYWGQGTLVTVSS
VL: DIQMTQSPSSLSASVGDRVTITCRASQSVSSAVAWYQQKPGKAPKLLIYSASSLYSGVPSRFSGSRSGTDFTLTISSLQPEDFATYYCQQSSYSLITFGQGTKVEIKR
EC50 [4]: 1200 nM
binding result [6]: no binding (tested: about 4000 nM (log10(nM) about 3.6))
Inhibition potency (FRET IC50) [5]: 10 nM

B5: MMP-14 catalytic domain mutant F260A (enzyme)
chain: not shown
notes: also called F260A MMP-14 mutant
binding result [10]: no binding (tested: about 2000 nM (log10(nM) 3.3))

More lines, main results first:

EC50 [4]: 375 nM
Inhibition potency (FRET IC50) [5]: 50 nM
B2: Fab R2C5 (Fab, V domains shown)
VH: EVQLVESGGGLVQPGGSLRLSCAASGFNLSSYYMHWVRQAPGKGLEWVASIYPYSSYTSYADSVKGRFTISADTSKNTAYLQMNSLRAEDTAVYYCARIMKIKRNSLKFRGFVPLQMQYVMDYWGQGTLVTVSS
VL: DIQMTQSPSSLSASVGDRVTITCRASQSVSSAVAWYQQKPGKAPKLLIYSASSLYSGVPSRFSGSRSGTDFTLTISSLQPEDFATYYCQQSYGLFTFGQGTKVEIKR
binding result [3]: no binding (tested: about 4000 nM (log10(nM) about 3.6))

EC50 [7]: 120 nM
Selectivity over MMP-2/-9 (ratio of Fab concentrations giving the same ELISA signal, MMP-2/-9 against MMP-14) [8]: 9.6 fold
IC50 by FRET Assay [9]: 420 nM
B4: Fab 33D2 (Fab, V domains shown)
VH: EVQLVESGGGLVQPGGSLRLSCAASGFNLYYSSIHWVRQAPGKGLEWVAYISSYSGYTSYADSVKGRFTISADTSKNTAYLQMNSLRAEDTAVYYCARSKYGPASRQLASRTSWSGPRGKYGMDYWGQGTLVTVSS
VL: DIQMTQSPSSLSASVGDRVTITCRASQSVSSAVAWYQQKPGKAPKLLIYSASSLYSGVPSRFSGSRSGTDFTLTISSLQPEDFATYYCQQAYGSYLITFGQGTKVEIKR
notes: not shown: His tag at the C-terminus of the heavy chain
